In this series the target is T1, FLAG-TCF4, full length human TCF4 expressed from pFLAG-CMV-4, Q9NQB0.
T1 chain: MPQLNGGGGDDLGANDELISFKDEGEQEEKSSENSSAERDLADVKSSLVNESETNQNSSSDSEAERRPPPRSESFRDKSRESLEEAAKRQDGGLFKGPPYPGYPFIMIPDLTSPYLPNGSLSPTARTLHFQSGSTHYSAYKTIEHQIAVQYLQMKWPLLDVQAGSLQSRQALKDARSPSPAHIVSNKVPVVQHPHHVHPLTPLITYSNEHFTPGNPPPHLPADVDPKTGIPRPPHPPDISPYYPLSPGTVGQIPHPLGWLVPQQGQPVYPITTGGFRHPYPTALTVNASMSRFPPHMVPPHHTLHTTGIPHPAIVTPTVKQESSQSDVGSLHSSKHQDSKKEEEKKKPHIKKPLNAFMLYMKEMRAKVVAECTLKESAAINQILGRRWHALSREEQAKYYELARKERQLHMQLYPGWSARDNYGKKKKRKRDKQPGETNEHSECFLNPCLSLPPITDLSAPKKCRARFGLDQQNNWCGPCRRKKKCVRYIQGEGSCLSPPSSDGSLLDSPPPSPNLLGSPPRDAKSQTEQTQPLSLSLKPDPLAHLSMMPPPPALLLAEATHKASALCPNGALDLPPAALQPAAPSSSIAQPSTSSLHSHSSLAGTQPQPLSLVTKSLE

B1: HA-TNIK, wild-type human TNIK full length expressed from pCIneo-HA-TNIK (protein)
chain: MASDSPARSLDEIDLSALRDPAGIFELVELVGNGTYGQVYKGRHVKTGQLAAIKVMDVTGDEEEEIKQEINMLKKYSHHRNIATYYGAFIKKNPPGMDDQLWLVMEFCGAGSVTDLIKNTKGNTLKEEWIAYICREILRGLSHLHQHKVIHRDIKGQNVLLTENAEVKLVDFGVSAQLDRTVGRRNTFIGTPYWMAPEVIACDENPDATYDFKSDLWSLGITAIEMAEGAPPLCDMHPMRALFLIPRNPAPRLKSKKWSKKFQSFIESCLVKNHSQRPATEQLMKHPFIRDQPNERQVRIQLKDHIDRTKKKRGEKDETEYEYSGSEEEEEENDSGEPSSILNLPGESTLRRDFLRLQLANKERSEALRRQQLEQQQRENEEHKRQLLAERQKRIEEQKEQRRRLEEQQRREKELRKQQEREQRRHYEEQMRREEERRRAEHEQEYIRRQLEEEQRQLEILQQQLLHEQALLLEYKRKQLEEQRQAERLQRQLKQERDYLVSLQHQRQEQRPVEKKPLYHYKEGMSPSEKPAWAKEVEERSRLNRQSSPAMPHKVANRISDPNLPPRSESFSISGVQPARTPPMLRPVDPQIPHLVAVKSQGPALTASQSVHEQPTKGLSGFQEALNVTSHRVEMPRQNSDPTSENPPLPTRIEKFDRSSWLRQEEDIPPKVPQRTTSISPALARKNSPGNGSALGPRLGSQPIRASNPDLRRTEPILESPLQRTSSGSSSSSSTPSSQPSSQGGSQPGSQAGSSERTRVRANSKSEGSPVLPHEPAKVKPEESRDITRPSRPASYKKAIDEDLTALAKELRELRIEETNRPMKKVTDYSSSSEESESSEEEEEDGESETHDGTVAVSDIPRLIPTGAPGSNEQYNVGMVGTHGLETSHADSFSGSISREGTLMIRETSGEKKRSGHSDSNGFAGHINLPDLVQQSHSPAGTPTEGLGRVSTHSQEMDSGTEYGMGSSTKASFTPFVDPRVYQTSPTDEDEEDEESSAAALFTSELLRQEQAKLNEARKISVVNVNPTNIRPHSDTPEIRKYKKRFNSEILCAALWGVNLLVGTENGLMLLDRSGQGKVYNLINRRRFQQMDVLEGLNVLVTISGKKNKLRVYYLSWLRNRILHNDPEVEKKQGWITVGDLEGCIHYKVVKYERIKFLVIALKNAVEIYAWAPKPYHKFMAFKSFADLQHKPLLVDLTVEEGQRLKVIFGSHTGFHVIDVDSGNSYDIYIPSHIQGNITPHAIVILPKTDGMEMLVCYEDEGVYVNTYGRITKDVVLQWGEMPTSVAYIHSNQIMGWGEKAIEIRSVETGHLDGVFMHKRAQRLKFLCERNDKVFFASVRSGGSSQVFFMTLNRNSMMNW
Turning to B1, the “serine phosphorylation of TCF4 (immunoprecipitation with anti-TCF4, immunoblot with anti-phospho-serine antibody)” value is recorded as “the serine phosphorylation band of TCF4 was detected”.

These data come from patent publication US20090215081.
